Molecular target: full length human importin β (KPNB1), expressed from pET30a-WT Importin β (pKW485) (human, UniProt Q14974 1-876)
Assay: FRET; displacement of importin β-bound Rango sensor

full length human importin β (KPNB1), expressed from pET30a-WT Importin β (pKW485), sequence (Q14974 whole entry): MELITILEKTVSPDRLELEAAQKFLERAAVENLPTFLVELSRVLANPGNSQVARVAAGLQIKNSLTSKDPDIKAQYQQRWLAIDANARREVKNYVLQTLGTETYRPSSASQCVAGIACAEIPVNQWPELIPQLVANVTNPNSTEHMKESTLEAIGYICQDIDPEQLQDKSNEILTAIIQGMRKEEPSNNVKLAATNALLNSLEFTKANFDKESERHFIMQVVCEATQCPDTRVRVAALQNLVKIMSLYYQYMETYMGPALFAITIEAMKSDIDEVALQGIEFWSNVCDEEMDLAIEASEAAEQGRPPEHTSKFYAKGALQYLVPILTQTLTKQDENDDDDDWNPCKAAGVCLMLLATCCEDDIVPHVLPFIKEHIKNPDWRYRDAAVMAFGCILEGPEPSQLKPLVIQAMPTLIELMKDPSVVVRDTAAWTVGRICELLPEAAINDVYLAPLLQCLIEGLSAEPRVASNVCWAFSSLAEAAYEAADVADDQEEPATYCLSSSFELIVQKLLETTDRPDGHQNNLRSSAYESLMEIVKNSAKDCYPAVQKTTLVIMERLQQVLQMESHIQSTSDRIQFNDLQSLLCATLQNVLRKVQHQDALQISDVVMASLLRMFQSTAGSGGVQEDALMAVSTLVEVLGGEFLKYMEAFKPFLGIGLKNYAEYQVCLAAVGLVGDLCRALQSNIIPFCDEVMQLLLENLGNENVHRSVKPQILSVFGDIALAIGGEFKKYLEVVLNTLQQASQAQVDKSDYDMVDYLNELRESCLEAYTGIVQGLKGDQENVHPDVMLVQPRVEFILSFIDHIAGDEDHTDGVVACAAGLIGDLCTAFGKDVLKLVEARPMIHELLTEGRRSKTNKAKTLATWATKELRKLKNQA

Binder	Kd [nM]
PRPRPRPRPRPRPRPRPRPRKC	8.2
GRGRGRGRGRGRGRGRGRGRKC	17.4

Source: doi:10.1101/787473 (2019)
